Reference: the Immune Epitope Database (IEDB)

Experiments:
HLA-C*05:01 = experiment: IEDB peptide-MHC binding, purified MHC/direct/fluorescence; filed as Kd, often an IC50 or EC50 that approximates it; ≥ and ≤ were set here for values at or beyond the usual limits of such assays
HLA-C*12:03 = experiment: as above
HLA-C*06:02 = experiment: as above
HLA-A*24:03 [1] = experiment: IEDB peptide-MHC binding, purified MHC/competitive/fluorescence; filed as Kd, often an IC50 or EC50 that approximates it; ≥ and ≤ were set here for values at or beyond the usual limits of such assays
HLA-A*02:01 [2] = experiment: IEDB peptide-MHC binding, purified MHC/direct/fluorescence; filed as Kd, often an IC50 or EC50 that approximates it; ≥ and ≤ were set here for values at or beyond the usual limits of such assays
HLA-A*11:01 = experiment: as above
HLA-B*40:01 = experiment: as above
HLA-A*03:01 [3] = experiment: as above
HLA-B*35:01 = experiment: as above
HLA-B*15:01 [4] = experiment: as above
HLA-A*69:01 = experiment: as above
HLA-B*08:01 = experiment: as above
HLA-A*31:01 = experiment: as above
HLA-B*07:02 = experiment: as above
HLA-B*57:01 [5] = experiment: as above
HLA-B*58:01 = experiment: as above
HLA-B*15:17 [6] = experiment: as above
HLA-A*26:01 [7] = experiment: as above
HLA-B*27:05 = experiment: as above
HLA-A*01:01 = experiment: as above
HLA-A*02:19 = experiment: IEDB peptide-MHC binding, purified MHC/competitive/fluorescence; filed as Kd, often an IC50 or EC50 that approximates it; ≥ and ≤ were set here for values at or beyond the usual limits of such assays
HLA-A*02:01 [8] = experiment: as above
HLA-B*27:03 = experiment: as above; settings: source organism: Salmonella enterica subsp. enterica serovar Choleraesuis str. SC-B67
HLA-B*46:01 = experiment: as above; settings: source organism: Salmonella enterica subsp. enterica serovar Choleraesuis str. SC-B67
HLA-A*29:02 = experiment: as above; settings: source organism: Salmonella enterica subsp. enterica serovar Choleraesuis str. SC-B67
HLA-A*03:01 [9] = experiment: as above; settings: source organism: Salmonella enterica subsp. enterica serovar Choleraesuis str. SC-B67
HLA-B*15:01 [10] = experiment: as above; settings: source organism: Salmonella enterica subsp. enterica serovar Choleraesuis str. SC-B67
HLA-B*57:01 [11] = experiment: as above; settings: source organism: Salmonella enterica subsp. enterica serovar Choleraesuis str. SC-B67
HLA-B*39:01 = experiment: as above; settings: source organism: Salmonella enterica subsp. enterica serovar Choleraesuis str. SC-B67
HLA-B*18:01 = experiment: as above; settings: source organism: Salmonella enterica subsp. enterica serovar Choleraesuis str. SC-B67
HLA-B*15:17 [12] = experiment: as above; settings: source organism: Salmonella enterica subsp. enterica serovar Choleraesuis str. SC-B67
HLA-A*26:01 [13] = experiment: as above; settings: source organism: Salmonella enterica subsp. enterica serovar Choleraesuis str. SC-B67
HLA-A*23:01 = experiment: as above; settings: source organism: Salmonella enterica subsp. enterica serovar Choleraesuis str. SC-B67
HLA-A*02:12 = experiment: as above; settings: source organism: Burkholderia pseudomallei 668
HLA-A*30:01 = experiment: IEDB peptide-MHC binding, purified MHC/direct/fluorescence; filed as Kd, often an IC50 or EC50 that approximates it; ≥ and ≤ were set here for values at or beyond the usual limits of such assays; settings: source organism: Salmonella enterica subsp. enterica serovar Typhi
HLA-A*24:03 [14] = experiment: as above
HLA-B*44:02 = experiment: as above
HLA-B*15:42 = experiment: IEDB peptide-MHC binding, purified MHC/competitive/fluorescence; filed as Kd, often an IC50 or EC50 that approximates it; ≥ and ≤ were set here for values at or beyond the usual limits of such assays; settings: source organism: Burkholderia mallei SAVP1
HLA-B*45:06 = experiment: as above; settings: source organism: Burkholderia mallei SAVP1
HLA-B*83:01 = experiment: as above; settings: source organism: Burkholderia mallei SAVP1
HLA-B*48:01 = experiment: IEDB peptide-MHC binding, purified MHC/direct/fluorescence; filed as Kd, often an IC50 or EC50 that approximates it; ≥ and ≤ were set here for values at or beyond the usual limits of such assays; settings: source organism: West Nile virus
[15] = source organism: Rickettsia felis
[16] = source organism: Rickettsia prowazekii
[17] = source organism: Salmonella enterica subsp. enterica serovar Choleraesuis str. SC-B67
[18] = source organism: Acinetobacter baylyi
[19] = source organism: Salmonella enterica
[20] = source organism: Salmonella enterica subsp. enterica serovar Typhi
[21] = source organism: Brucella abortus 2308
[22] = source organism: Brucella melitensis
[23] = source organism: Giardia lamblia ATCC 50803
[24] = source organism: Burkholderia thailandensis

**Q.** Which Kd (HLA-C*05:01; source organism: Influenza A virus (A/California/04/2009(H1N1))) does the source give for MTIGMANLI here?
**A.** ≥ 20 µM

**Q.** How did the Kd (HLA-C*12:03; source organism: Murid gammaherpesvirus 4) turn out when VSFICTTIL was run?
**A.** 0.485 µM

**Q.** For IRHNKDRKV, which Kd (HLA-C*06:02; source organism: Mus musculus) is on record?
**A.** 0.026 µM

**Q.** YYVMGGAFL was tested. Which Kd (HLA-A*24:03 [1]; source organism: Bacillus anthracis str. A0488) did it give?
**A.** 0.0003 µM

**Q.** Which Kd (HLA-C*12:03; source organism: Mycobacterium tuberculosis variant bovis BCG str. Pasteur 1173P2) does the source give for FTRDTGATL here?
**A.** ≤ 0.001 µM

**Q.** How did the Kd (HLA-A*02:01 [2]; [15]) turn out when GSFKEYVFW was run?
**A.** ≥ 20 µM

**Q.** And the Kd (HLA-A*11:01; [15])?
**A.** ≥ 20 µM

**Q.** What about the Kd (HLA-B*40:01; [15]) of the same sequence?
**A.** ≥ 20 µM

**Q.** And the Kd (HLA-A*03:01 [3]; [15])?
**A.** ≥ 20 µM

**Q.** What about the Kd (HLA-B*35:01; [16]) of the same sequence?
**A.** 1.9 µM

**Q.** What about the Kd (HLA-B*15:01 [4]; [16]) of the same sequence?
**A.** 5.69 µM

**Q.** And the Kd (HLA-A*69:01; [15])?
**A.** ≥ 20 µM

**Q.** And the Kd (HLA-B*08:01; [15])?
**A.** ≥ 20 µM

**Q.** And the Kd (HLA-A*31:01; [15])?
**A.** ≥ 20 µM

**Q.** And the Kd (HLA-B*07:02; [15])?
**A.** ≥ 20 µM

**Q.** What about the Kd (HLA-B*57:01 [5]; [15]) of the same sequence?
**A.** 0.167 µM

**Q.** What about the Kd (HLA-B*58:01; [16]) of the same sequence?
**A.** 0.00781 µM

**Q.** What about the Kd (HLA-B*15:17 [6]; [15]) of the same sequence?
**A.** 0.105 µM

**Q.** And the Kd (HLA-A*26:01 [7]; [15])?
**A.** ≥ 20 µM

**Q.** And the Kd (HLA-B*27:05; [15])?
**A.** ≥ 20 µM

**Q.** And the Kd (HLA-A*01:01; [15])?
**A.** ≥ 20 µM

**Q.** What does the source list for GIALAVPCV?
**A.** Kd (HLA-A*02:19; [17]): 0.0018 µM; Kd (HLA-A*02:01 [8]; [17]): 0.0007 µM; Kd (HLA-B*27:03): ≥ 20 µM; Kd (HLA-B*46:01): ≥ 20 µM; Kd (HLA-A*29:02): 3 µM; Kd (HLA-A*03:01 [9]): ≥ 20 µM; Kd (HLA-B*15:01 [10]): ≥ 20 µM; Kd (HLA-B*57:01 [11]): ≥ 20 µM; Kd (HLA-B*39:01): ≥ 20 µM; Kd (HLA-B*18:01): ≥ 20 µM; Kd (HLA-B*15:17 [12]): ≥ 20 µM; Kd (HLA-A*26:01 [13]): ≥ 20 µM; Kd (HLA-A*24:03 [1]; [17]): ≥ 20 µM; Kd (HLA-A*23:01): ≥ 20 µM

**Q.** Which Kd (HLA-A*02:01 [8]; source organism: Burkholderia pseudomallei 668) does the source give for GIYGAVIPL here?
**A.** ≤ 0.0001 µM

**Q.** What about the Kd (HLA-A*02:12) of the same sequence?
**A.** 0.0086 µM

**Q.** For DLMLLSYSL, which Kd (HLA-A*02:19; [18]) is on record?
**A.** 0.0141 µM

**Q.** What about the Kd (HLA-A*02:01 [8]; [18]) of the same sequence?
**A.** 0.16 µM

**Q.** What does the source list for EHFYWGSVF?
**A.** Kd (HLA-A*02:01 [2]; [19]): ≥ 20 µM; Kd (HLA-A*11:01; [20]): 7.98 µM; Kd (HLA-B*40:01; [19]): ≥ 20 µM; Kd (HLA-A*03:01 [3]; [19]): ≥ 20 µM; Kd (HLA-B*35:01; [20]): 0.427 µM; Kd (HLA-B*15:01 [4]; [20]): 1.89 µM; Kd (HLA-A*30:01): 19.2 µM; Kd (HLA-A*69:01; [19]): ≥ 20 µM; Kd (HLA-B*08:01; [19]): ≥ 20 µM; Kd (HLA-A*31:01; [19]): ≥ 20 µM; Kd (HLA-B*58:01; [19]): ≥ 20 µM; Kd (HLA-A*26:01 [7]; [19]): ≥ 20 µM; Kd (HLA-A*24:03 [14]; [20]): 0.318 µM; Kd (HLA-B*27:05; [19]): ≥ 20 µM; Kd (HLA-A*01:01; [19]): ≥ 20 µM

**Q.** How did the Kd (HLA-A*02:01 [2]; [21]) turn out when TPPVDRMAV was run?
**A.** ≥ 20 µM

**Q.** And the Kd (HLA-A*11:01; [21])?
**A.** ≥ 20 µM

**Q.** What about the Kd (HLA-B*40:01; [21]) of the same sequence?
**A.** ≥ 20 µM

**Q.** And the Kd (HLA-A*03:01 [3]; [21])?
**A.** ≥ 20 µM

**Q.** And the Kd (HLA-B*35:01; [22])?
**A.** 1.07 µM

**Q.** What about the Kd (HLA-A*69:01; [21]) of the same sequence?
**A.** ≥ 20 µM

**Q.** What about the Kd (HLA-B*08:01; [22]) of the same sequence?
**A.** 9.04 µM

**Q.** What about the Kd (HLA-A*31:01; [21]) of the same sequence?
**A.** ≥ 20 µM

**Q.** What about the Kd (HLA-B*07:02; [22]) of the same sequence?
**A.** 0.288 µM

**Q.** What about the Kd (HLA-B*58:01; [21]) of the same sequence?
**A.** ≥ 20 µM

**Q.** What about the Kd (HLA-B*44:02; [21]) of the same sequence?
**A.** ≥ 20 µM

**Q.** And the Kd (HLA-A*26:01 [7]; [21])?
**A.** ≥ 20 µM

**Q.** What about the Kd (HLA-A*24:03 [14]; [21]) of the same sequence?
**A.** ≥ 20 µM

**Q.** What about the Kd (HLA-B*27:05; [21]) of the same sequence?
**A.** ≥ 20 µM

**Q.** What about the Kd (HLA-A*01:01; [21]) of the same sequence?
**A.** ≥ 20 µM

**Q.** With YQYGDNLIL as the sequence, how does the Kd (HLA-A*02:01 [2]; [23]) read?
**A.** 0.0221 µM

**Q.** What about the Kd (HLA-A*11:01; [23]) of the same sequence?
**A.** ≥ 20 µM

**Q.** And the Kd (HLA-B*40:01; [23])?
**A.** 0.0777 µM

**Q.** What about the Kd (HLA-A*03:01 [3]; [23]) of the same sequence?
**A.** ≥ 20 µM

**Q.** And the Kd (HLA-B*35:01; [23])?
**A.** 0.41 µM

**Q.** And the Kd (HLA-B*15:01 [4]; [23])?
**A.** 0.0892 µM

**Q.** What about the Kd (HLA-A*69:01; [23]) of the same sequence?
**A.** ≥ 20 µM

**Q.** And the Kd (HLA-B*08:01; [23])?
**A.** ≥ 20 µM

**Q.** What about the Kd (HLA-A*31:01; [23]) of the same sequence?
**A.** ≥ 20 µM

**Q.** And the Kd (HLA-B*07:02; [23])?
**A.** ≥ 20 µM

**Q.** And the Kd (HLA-B*58:01; [23])?
**A.** ≥ 20 µM

**Q.** And the Kd (HLA-B*44:02; [23])?
**A.** ≥ 20 µM

**Q.** And the Kd (HLA-A*26:01 [7]; [23])?
**A.** ≥ 20 µM

**Q.** What about the Kd (HLA-B*27:05; [23]) of the same sequence?
**A.** 0.43 µM

**Q.** And the Kd (HLA-A*01:01; [23])?
**A.** ≥ 20 µM

**Q.** For VADEIAFGL, which Kd (HLA-C*05:01; source organism: Escherichia coli E22) is on record?
**A.** ≤ 0.001 µM

**Q.** What does the source list for MALATGLWW?
**A.** Kd (HLA-B*57:01 [5]; source organism: Burkholderia mallei ATCC 23344): 0.033 µM; Kd (HLA-B*58:01; [24]): 0.0005 µM; Kd (HLA-B*15:17 [6]; [24]): 0.0004 µM; Kd (HLA-B*15:42): ≥ 5 µM; Kd (HLA-B*45:06): ≥ 5 µM; Kd (HLA-B*83:01): ≥ 5 µM

**Q.** Which Kd (HLA-C*06:02; source organism: West Nile virus) does the source give for RRSRRSLTV here?
**A.** 0.036 µM

**Q.** And the Kd (HLA-B*48:01)?
**A.** ≥ 20 µM
